Test [1] has as its target CGRP antigen. The test can be described thus: cell-based or functional assay.
The target in test [2] is CGRP antigen. Put plainly: cell-based or functional assay. The source holds these as a separate data set.
The target in test [3] is CGRP antigen. The test can be described thus: cell-based or functional assay. The source holds these as a separate data set.
The target in test [4] is synthetic human α-CGRP polypeptide (SEQ ID NO: 97)-NH2 (human). The test can be described thus: BLI (Octet), antibody on AHC2, 50 nM CGRP; association pH 5.5, dissociation pH 5.5. A general note: In BLI a coated tip is dipped into the sample, and binding shifts an interference pattern.
synthetic human α-CGRP polypeptide (SEQ ID NO: 97)-NH2 (human), sequence (peptide, as listed by the source): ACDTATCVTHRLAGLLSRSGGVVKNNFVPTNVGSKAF
Test [5] has the same target. Put plainly: BLI (Octet), antibody on AHC2, 50 nM CGRP; association pH 7.4, dissociation pH 7.4.
For test [6] the target is unchanged. The test can be described thus: BLI (Octet), antibody on AHC2, 50 nM CGRP; association pH 7.4, dissociation pH 5.5.
The target of the next test is Biotin-huCGRPaSA (human). The test can be described thus: ELISA, supernatant; relative to chimeric C245. (In an ELISA, binding on a coated surface is turned into a signal by an enzyme label.)
Biotin-huCGRPaSA (human), sequence (peptide, as listed by the source): as above

Read-outs that look alike come from different tables or passages of the source.

B1: fremanezumab from Teva (antibody, INN chains, looked up, V domains shown)
VH: EVQLVESGGGLVQPGGSLRLSCAASGFTFSNYWISWVRQAPGKGLEWVAEIRSESDASATHYAEAVKGRFTISRDNAKNSLYLQMNSLRAEDTAVYYCLAYFDYGLAIQNYWGQGTLVTVSS
VL: EIVLTQSPATLSLSPGERATLSCKASKRVTTYVSWYQQKPGQAPRLLIYGASNRYLGIPARFSGSGSGTDFTLTISSLEPEDFAVYYCSQSYNYPYTFGQGTKLEIK
By IC50 is commonly meant the midpoint of a concentration-inhibition curve. High values mean a need for much substance, low ones inhibition by little substance. Take B1: the figures for the IC50 in the test with CGRP antigen [1], with CGRP antigen [2] and with CGRP antigen [3] were 0.0563 µg/mL, 0.0613 µg/mL and 0.0847 µg/mL, respectively. In addition, the Relative binding activity (%) vs Ref(Teva) with CGRP antigen [3] was found to be 100%.

B2: Fremanezumab Analogue (antibody, INN chains, looked up, V domains shown)
VH: B1 VH
VL: B1 VL
modifications: in-house analogue
For orientation: koff means the first-order rate constant of dissociation. With B2, the Binding signal (nm) in test [4] was 0.08 nm; in test [5], 0.12 nm; in test [6] it was 0.1 nm. The koff in test [4] was 5.1e-05 s⁻¹; in test [5], < 1e-05 s⁻¹; in test [6] it was < 1e-05 s⁻¹.

B3: Galcanezumab Analogue (antibody, INN chains, looked up, V domains shown)
VH: QVQLVQSGAEVKKPGSSVKVSCKASGYTFGNYWMQWVRQAPGQGLEWMGAIYEGTGKTVYIQKFADRVTITADKSTSTAYMELSSLRSEDTAVYYCARLSDYVSGFGYWGQGTTVTVSS
VL: DIQMTQSPSSLSASVGDRVTITCRASKDISKYLNWYQQKPGKAPKLLIYYTSGYHSGVPSRFSGSGSGTDFTLTISSLQPEDFATYYCQQGDALPPTFGGGTKVEIK
modifications: in-house analogue
B3: the Binding signal (nm) worked out at 0.11 nm in test [4], 0.14 nm in test [5] and 0.12 nm in test [6]. Moreover, the off-rate constant (koff) in test [4] was 0.000251 s⁻¹; in test [5], 8.36e-05 s⁻¹; in test [6] it was 0.00871 s⁻¹.

B4: hu34 (antibody, V domains shown)
VH: QVQLVQSGAEVKKPGASVKVSCKASGYTFIDFNMHWVRQAPGQRLEWMGYIYPYNGDVVYNQNFTNRVTLTVDTSSSTAYMELSSLRSEDTAVYYCAREGLGGYWGQGTLVTVSS
VL: DIVLTQSPDSLAVSLGERATINCKASQNIDFDGYAYMNWYQHKPGQPPKVLIYSVFNLESGVPDRFSGSGSGTDFTLTISSLQAEDVAVYYCQQSHEVPYTFGQGTKLEIK
B4 came in with a Relative binding activity, % with Biotin-huCGRPaSA (human) of 5%.
